Test results as given in US20050026839A1 (GENERAL HOSPITAL, published 2005).
Square brackets hold non-standard residues; d marks the D form. Ends that are not written are not given here. hArg = N=C(N)NCCCC[C@H](N)C(=O)O; Nle = CCCC[C@H](N)C(=O)O; Aib = CC(C)(N)C(=O)O

B1: [Aib^1,3,M]PTH(1-14) (peptide)
peptide: [Aib]V[Aib]EIQLMHQ[hArg]AKW-NH2
modifications: N-terminus assumed
SMILES: CC[C@H](C)[C@H](NC(=O)[C@H](CCC(=O)O)NC(=O)C(C)(C)NC(=O)[C@@H](NC(=O)C(C)(C)N)C(C)C)C(=O)N[C@@H](CCC(N)=O)C(=O)N[C@@H](CC(C)C)C(=O)N[C@@H](CCSC)C(=O)N[C@@H](Cc1c[nH]cn1)C(=O)N[C@@H](CCC(N)=O)C(=O)N[C@@H](CCCCNC(=N)N)C(=O)N[C@@H](C)C(=O)N[C@@H](CCCCN)C(=O)N[C@@H](Cc1c[nH]c2ccccc12)C(N)=O
notes: also called 671 [Aib^1,3, M]PTH (1-14); 671 [Aib^1,3M]PTH(1-14)
B2: [Aib^1,3,M]PTH(1-21) (peptide)
peptide: [Aib]V[Aib]EIQL[Nle]HQ[hArg]AKWLASVRRY-NH2
modifications: N-terminus assumed
SMILES: CCCC[C@H](NC(=O)[C@H](CC(C)C)NC(=O)[C@H](CCC(N)=O)NC(=O)[C@@H](NC(=O)[C@H](CCC(=O)O)NC(=O)C(C)(C)NC(=O)[C@@H](NC(=O)C(C)(C)N)C(C)C)[C@@H](C)CC)C(=O)N[C@@H](Cc1c[nH]cn1)C(=O)N[C@@H](CCC(N)=O)C(=O)N[C@@H](CCCCNC(=N)N)C(=O)N[C@@H](C)C(=O)N[C@@H](CCCCN)C(=O)N[C@@H](Cc1c[nH]c2ccccc12)C(=O)N[C@@H](CC(C)C)C(=O)N[C@@H](C)C(=O)N[C@@H](CO)C(=O)N[C@H](C(=O)N[C@@H](CCCNC(=N)N)C(=O)N[C@@H](CCCNC(=N)N)C(=O)N[C@@H](Cc1ccc(O)cc1)C(N)=O)C(C)C
notes: unlabeled peptide; also called 674 [Aib^1,3, M]PTH (1-21); 674 [Aib^1,3M]PTH(1-21)

What was measured:
[1] = target: T1, truncated human P1R deleted for residues (24-181) (hP1R-delNt) (human, UniProt Q03431 182-593); assay: competition binding, COS-7 cells expressing P1R-delNt
T1 construct: whole, on cells; also called delNT receptor
T1 sequence (looked up): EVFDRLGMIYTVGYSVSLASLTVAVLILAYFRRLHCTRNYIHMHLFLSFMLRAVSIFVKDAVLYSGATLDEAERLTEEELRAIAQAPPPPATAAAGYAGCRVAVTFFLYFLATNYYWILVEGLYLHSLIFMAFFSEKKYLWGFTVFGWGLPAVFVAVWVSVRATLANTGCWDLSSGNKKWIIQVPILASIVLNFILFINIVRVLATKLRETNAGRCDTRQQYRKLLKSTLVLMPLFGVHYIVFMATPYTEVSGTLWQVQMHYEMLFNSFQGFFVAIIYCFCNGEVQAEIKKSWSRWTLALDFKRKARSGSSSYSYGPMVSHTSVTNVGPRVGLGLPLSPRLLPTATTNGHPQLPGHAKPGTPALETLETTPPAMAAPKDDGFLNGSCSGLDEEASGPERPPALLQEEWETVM
Procedure: These cells, as well as COS-7 cells and SaOS-2-B10 cells, were cultured at […] in T-75 flasks ([…]) in Dulbecco's modified Eagle's medium (DMEM) supplemented with fetal bovine serum (10%), penicillin G (20 units/ml), streptomycin sulfate (20 μg/ml) and amphotericin B (0.05 μg/ml) in a humidified atmosphere containing 5% CO₂. Stock solutions of EGTA/trypsin and antibiotics were from GIBCO; fetal bovine serum was from Hyclone Laboratories (Logan, Utah). […] All cells, in 24-well plates, were treated with fresh media and shifted to 33° C. for 12 to 24 h prior to assay.
Competition Binding. Binding reactions were performed with HKRK-B28 cells or in COS-7 cells in 24-well plates. […] The cells were subsequently lysed with 0.5 mL […] and counted for radioactivity. For each tracer and in each experiment, the non-specific binding was determined as the radioactivity that bound in the presence of the same unlabeled peptide at a concentration of 1 μM, and was ˜1% of total radioactivity added for each tracer. The maximum specific binding (B₀) was the total radioactivity bound in the absence of competing ligand, corrected for nonspecific binding, and for each tracer, ranged from 8% to 20% of the total radioactivity added. […]

[2] = target: T2, wild-type human PTH/PTHrP receptor (hP1R-WT) (human, UniProt Q03431 27-593); assay: cell-based or functional assay
T2 sequence (looked up): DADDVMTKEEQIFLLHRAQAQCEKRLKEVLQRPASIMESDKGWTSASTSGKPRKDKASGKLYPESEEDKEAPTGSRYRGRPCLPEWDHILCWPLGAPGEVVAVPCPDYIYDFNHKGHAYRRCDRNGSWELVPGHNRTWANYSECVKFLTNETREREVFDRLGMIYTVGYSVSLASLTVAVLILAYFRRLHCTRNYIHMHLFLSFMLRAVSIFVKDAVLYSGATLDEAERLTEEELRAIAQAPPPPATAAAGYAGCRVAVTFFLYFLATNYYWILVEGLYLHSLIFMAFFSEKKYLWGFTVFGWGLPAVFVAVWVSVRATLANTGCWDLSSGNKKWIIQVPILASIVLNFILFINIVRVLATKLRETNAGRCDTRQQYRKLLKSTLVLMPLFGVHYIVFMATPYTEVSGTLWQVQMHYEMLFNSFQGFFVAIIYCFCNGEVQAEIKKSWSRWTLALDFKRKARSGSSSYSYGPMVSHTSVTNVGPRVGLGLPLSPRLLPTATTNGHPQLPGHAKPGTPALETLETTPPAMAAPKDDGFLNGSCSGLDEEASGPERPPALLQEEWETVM

[3] = target: T1, truncated human P1R deleted for …; assay: Scatchard transformation of homologous competition binding, 125I-[Aib1,3,M]PTH(1-21) tracer, COS-7 cells expressing P1R-delNt
Procedure: The cells were subsequently lysed with 0.5 mL […] NaOH and counted for radioactivity. For each tracer and in each experiment, the non-specific binding was determined as the radioactivity that bound in the presence of the same unlabeled peptide at a concentration of 1 μM, and was ˜1% of total radioactivity added for each tracer. The maximum specific binding (B₀) was the total radioactivity bound in the absence of competing ligand, corrected for nonspecific binding, and for each tracer, ranged from 8% to 20% of the total radioactivity added. Nonlinear regression was used to calculate binding IC₅₀ values (see below). Scatchard transformations of homologous competition binding data derived from studies with 26 fmol of ¹²⁵I-[Aib^{1,3},M]PTH(1-21) were employed for estimations of apparent equilibrium dissociation constant (kDapps) and total number of ligand binding sites (Bₘₐₓ), assuming a single class of binding sites and equal affinities of the iodinated and non iodinated ligand.
To potentially improve affinity of this peptide, the paired Aib-1,3 modifications were introduced to produce [Aib^{1,3},M]PTH(1-21). […] The total specific binding observed in COS-7 cells tranfected with vector DNA alone was<2% of total radioactivity added. This radioligand, therefore, enabled competition binding experiments to be performed with both the wild-type and truncated PTH-1 receptors.

Row | Binder | fold stronger binding affinity than [M]PTH(1-14) [1] [fold] | cAMP EMAX(obs.) in SaOS-2 cells [2] [pmole/well] | Kd [3] [nM] | fold difference in affinity against [Aib^1,3,M]PTH(1-14) [1] [fold]
1 | B1 | ~10 | 320 |  | 
2 | B2 |  |  | 29 | 50
